Reference: patent US20140120109A1 (Regeneron, published 2014)

T1: mouse TL1A, soluble, CHO-expressed, residues 76-252 of SEQ ID NO:250 with N-terminal His6-tag (mouse, UniProt Q5UBV8 76-252)
T1 construct: also called mTL1A; mTL1A (CHO)
T1 sequence: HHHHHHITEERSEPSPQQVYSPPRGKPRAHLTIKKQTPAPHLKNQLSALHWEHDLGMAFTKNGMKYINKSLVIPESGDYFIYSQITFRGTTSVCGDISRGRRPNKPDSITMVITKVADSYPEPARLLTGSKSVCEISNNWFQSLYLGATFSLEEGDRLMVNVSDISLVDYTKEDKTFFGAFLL

T2: human TL1A, soluble, CHO-expressed, residues 72-251 of SEQ ID NO:244 with N-terminal His6-tag (human, UniProt O95150 72-251)
T2 construct: also called hTL1A; hTL1A (CHO)
T2 sequence: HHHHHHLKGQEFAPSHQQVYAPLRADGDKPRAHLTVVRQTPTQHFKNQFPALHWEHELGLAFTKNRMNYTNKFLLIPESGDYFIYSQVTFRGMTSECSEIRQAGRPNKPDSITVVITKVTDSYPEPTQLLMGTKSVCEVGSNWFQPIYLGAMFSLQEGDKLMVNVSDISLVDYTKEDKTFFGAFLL

B1: H4H1818N (antibody, human IgG4 S228P, V domains shown)
VH: RLQLVESGGGLVKPGGSLKLSCAASGFTISDYYMSWIRQAPGKGLEWVSYIGGSGSTIYYADSVKGRFTISRDNAKNSLYLQMNSLRAEDTAVYYCAREDADSYYYYGMDVWGQGTTVTVSS
VL: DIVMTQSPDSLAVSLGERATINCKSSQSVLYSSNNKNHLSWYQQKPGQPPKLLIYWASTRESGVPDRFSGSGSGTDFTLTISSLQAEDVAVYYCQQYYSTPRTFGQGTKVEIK
notes: human IgG4(S108P) form of H2M1818N
B2: H4H1750P (antibody, human IgG4 S228P, V domains shown)
VH: QVQLVESGGGVVQPGRSLRLSCVASGFTFSNYGMHWVRQAPGKGLEWVAVISYDGNNDLYSDSVKGRFTISRDNAKNALSLQMTSLRAEDTAVYYCARDSTMTPYYYHGIDVWGQGTTVTVSA
VL: DIQMTQSPSSLSASVGDRVTITCRASQDIRNDLGWYQQKPGKAPKRLIYAASSLQSGVPSRFSGSGSGTDFTLTISSLQPEDFATYYCLQHNSYPPTFGQGTKVEIK

Key:
[1] = target: T1, mouse TL1A, soluble, CHO-expressed, …; assay: SPR 25C, mAb captured; 25 C, CHO-expressed mTL1A, SPR
Method: (§1) Measurements were conducted on a T100 BIACORE™ instrument. […] Kinetic association (kₐ) and dissociation (kd) rate constants were determined by fitting the data to a 1:1 binding model using BIAevaluation 4.1 curve fitting software (BIAcore Life Sciences). Molar concentrations of TL1A/Fhm used in the data fitting assumed a monomeric state for TL1A in solution. Binding dissociation equilibrium constants (KD) and dissociative half-lives (t_{1/2}) were calculated from the kinetic rate constants as: KD (M)=kd/kₐ; and t_{1/2} (min)=[In2/(60*kd)].

[2] = target: T2, human TL1A, soluble, CHO-expressed, …; assay: SPR 25C, mAb captured; kd set at 1e-6 1/s; 25 C; kd set at 1x10^-6 1/s
Method: as §1

Binder	Kd [1] [nM]	t1/2 [1] [min]	Kd [2] [nM]
B1	7.1	12	–
B2	–	–	≤ 0.0158
